Reference: publication doi:10.1101/2020.11.06.371773
Several values for one entry are separate records, joined by “and”; a condition that tells them apart may be missing. Equal values may be shown once.

Biological target: Mayaro virus (MAYV) capsid (C) protein, strain IQT4235 (Mayaro virus, strain IQT4235)
Test: cryo-EM structure

Mayaro virus (MAYV) capsid (C) protein, strain IQT4235 (natural protein)
stoichiometry N: 6 and 5
